The target of the assay is biotinylated Sos1^PRS peptide. Put plainly: BLI. Background: BLI is a label-free optical method that tracks binding on a fibre tip over time.

This passage reports Kd results from paper doi:10.1101/2025.02.16.638521.

One may read the Kd as the equilibrium constant for the complex coming apart. Higher therefore signals lower affinity. “GST-tagged Grb2^SH3C (C-terminal SH3 domain of Grb2) (domain or fragment)” gave a Kd of 14.7 µM.
